Key:
[1] = target: filamentous actin (F-actin) polymerized from G-actin purified from rabbit skeletal muscle (rabbit) (UniProt P68135)
[2] = target: filamentous actin (F-actin) polymerized from G-actin purified from rabbit skeletal muscle (rabbit) (UniProt P68135); remark: listed apart in the source

percent activation of localisation to F-actin (0% inactive optoCAST, 100% ABM only) in live HeLa cells under blue light [1] [%]	percent activation of localisation to F-actin (0% inactive pepCAST, 100% ABM only) in live HeLa cells that co-express SZ21 [2] [%]	Substance
80		ABS optoCAST (ABS opto1: mCherry-AsLOV2(403-540)-ABS) (from UniProt O49003 403-540) (designed binder)
	> 80	ABS pepCAST (ABS pep6: SZ3-linker-ABS-linker-SZ4-eGFP) (designed binder)

From paper PMC11239668
